Data from PMC3326387.
pKd: −log10 of the molar value.

Target: ecto-FLRT3 (immobilized for SPR) (UniProt Q8BGT1)
Experiment: SPR

UniProt Q8BGT1, sequence (Q8BGT1 29-528): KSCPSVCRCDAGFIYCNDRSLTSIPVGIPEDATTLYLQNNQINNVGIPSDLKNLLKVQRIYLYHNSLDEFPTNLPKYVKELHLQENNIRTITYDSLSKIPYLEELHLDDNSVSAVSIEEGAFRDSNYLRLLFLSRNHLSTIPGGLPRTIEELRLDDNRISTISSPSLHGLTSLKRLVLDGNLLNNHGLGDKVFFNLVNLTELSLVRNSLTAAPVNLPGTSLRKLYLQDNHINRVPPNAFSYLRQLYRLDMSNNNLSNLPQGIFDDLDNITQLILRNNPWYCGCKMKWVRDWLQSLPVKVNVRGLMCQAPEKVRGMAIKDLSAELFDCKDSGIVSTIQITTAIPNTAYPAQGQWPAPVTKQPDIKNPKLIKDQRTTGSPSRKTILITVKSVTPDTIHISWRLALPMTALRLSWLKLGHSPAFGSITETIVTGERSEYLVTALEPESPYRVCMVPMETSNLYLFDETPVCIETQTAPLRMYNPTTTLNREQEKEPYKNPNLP

ecto-LPHN3-Fc (from UniProt Q80TS3 20-1537) (Fc fusion)
pKd: 7.83
